The record followed here is PMC12373997.

The target of this experiment is Taxol-stabilized microtubules polymerised from purified porcine brain tubulin (porcine) (UniProt P02550). The experiment in a line: co-sedimentation; tubulin co-sedimentation: taxol-stabilized MTs (varied, α/β-tubulin heterodimer molarity) with 1 µM purified N-clamp, 0.25 mg/ml BSA, BRB80-MT buffer (80 mM PIPES, 1 mM MgCl2, 1 mM EGTA, 12.5% glycerol, pH 6.8), 20 min at room temperature, 200,000 g 10 min 27 °C; SDS-PAGE densitometry of pellet; apparent Kd from a quadratic fit.

Sequence of X. laevis augmin N-clamp with HAUS8 lacking its N-terminal extension (Q0IHJ3 whole entry, looked up, one chain of several): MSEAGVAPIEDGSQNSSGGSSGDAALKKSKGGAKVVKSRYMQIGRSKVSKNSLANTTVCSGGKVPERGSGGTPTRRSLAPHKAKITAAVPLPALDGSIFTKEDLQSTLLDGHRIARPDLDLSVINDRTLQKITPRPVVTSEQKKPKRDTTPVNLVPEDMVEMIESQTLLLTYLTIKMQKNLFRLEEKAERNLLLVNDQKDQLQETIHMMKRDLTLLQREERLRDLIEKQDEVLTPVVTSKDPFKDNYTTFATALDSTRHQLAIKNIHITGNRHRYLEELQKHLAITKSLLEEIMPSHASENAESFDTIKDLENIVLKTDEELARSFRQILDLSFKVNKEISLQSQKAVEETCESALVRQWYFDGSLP
Sequence of X. laevis augmin N-clamp, wild type (HAUS2, HAUS6, HAUS7-EGFP-HIS8, HAUS8-HIS8) (Q0IHJ3 whole entry, looked up, one chain of several): as above
Sequence of A. thaliana augmin N-clamp with AUG8 lacking its N-terminal extension (O48767 whole entry): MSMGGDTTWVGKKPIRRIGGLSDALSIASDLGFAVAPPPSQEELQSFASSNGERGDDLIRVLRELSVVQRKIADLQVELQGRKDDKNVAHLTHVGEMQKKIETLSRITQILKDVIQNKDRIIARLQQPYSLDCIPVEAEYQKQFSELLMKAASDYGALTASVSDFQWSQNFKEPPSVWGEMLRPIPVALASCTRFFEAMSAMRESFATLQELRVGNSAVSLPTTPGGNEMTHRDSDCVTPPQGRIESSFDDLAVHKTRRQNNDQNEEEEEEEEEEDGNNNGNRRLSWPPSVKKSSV
Sequence of A. thaliana augmin N-clamp with AUG8 lacking its N-terminal extension (Q94BP7 whole entry): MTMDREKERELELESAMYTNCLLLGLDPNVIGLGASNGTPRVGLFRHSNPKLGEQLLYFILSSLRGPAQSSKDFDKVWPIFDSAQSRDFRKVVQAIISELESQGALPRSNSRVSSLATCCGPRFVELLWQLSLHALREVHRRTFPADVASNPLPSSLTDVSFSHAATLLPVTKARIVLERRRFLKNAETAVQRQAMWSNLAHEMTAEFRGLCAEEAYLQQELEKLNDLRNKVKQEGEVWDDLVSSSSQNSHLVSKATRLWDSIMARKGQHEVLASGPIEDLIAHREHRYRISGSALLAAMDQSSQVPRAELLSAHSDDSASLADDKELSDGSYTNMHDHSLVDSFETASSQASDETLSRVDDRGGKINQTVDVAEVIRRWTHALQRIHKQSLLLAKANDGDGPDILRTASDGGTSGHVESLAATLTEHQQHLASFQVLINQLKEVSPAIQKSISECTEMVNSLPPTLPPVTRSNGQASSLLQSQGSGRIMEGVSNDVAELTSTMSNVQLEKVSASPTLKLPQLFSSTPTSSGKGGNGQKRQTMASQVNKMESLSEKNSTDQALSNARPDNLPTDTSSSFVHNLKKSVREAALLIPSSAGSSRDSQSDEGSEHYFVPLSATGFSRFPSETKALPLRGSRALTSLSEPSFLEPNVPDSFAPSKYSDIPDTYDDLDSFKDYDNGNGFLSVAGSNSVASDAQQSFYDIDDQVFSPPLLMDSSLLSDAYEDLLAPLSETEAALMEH
Sequence of A. thaliana augmin N-clamp with AUG8 lacking its N-terminal extension (Q0WTP1 whole entry): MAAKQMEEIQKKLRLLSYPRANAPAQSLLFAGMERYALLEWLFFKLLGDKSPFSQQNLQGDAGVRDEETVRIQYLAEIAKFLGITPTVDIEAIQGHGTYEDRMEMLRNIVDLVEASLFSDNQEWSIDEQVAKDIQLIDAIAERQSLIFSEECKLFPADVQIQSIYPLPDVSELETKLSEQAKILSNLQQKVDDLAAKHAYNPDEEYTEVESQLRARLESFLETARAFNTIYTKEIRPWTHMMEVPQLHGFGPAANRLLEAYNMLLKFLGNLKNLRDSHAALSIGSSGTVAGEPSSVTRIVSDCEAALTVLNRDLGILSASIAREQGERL
Sequence of A. thaliana augmin N-clamp with AUG8 lacking its N-terminal extension (Q9SUH5 whole entry): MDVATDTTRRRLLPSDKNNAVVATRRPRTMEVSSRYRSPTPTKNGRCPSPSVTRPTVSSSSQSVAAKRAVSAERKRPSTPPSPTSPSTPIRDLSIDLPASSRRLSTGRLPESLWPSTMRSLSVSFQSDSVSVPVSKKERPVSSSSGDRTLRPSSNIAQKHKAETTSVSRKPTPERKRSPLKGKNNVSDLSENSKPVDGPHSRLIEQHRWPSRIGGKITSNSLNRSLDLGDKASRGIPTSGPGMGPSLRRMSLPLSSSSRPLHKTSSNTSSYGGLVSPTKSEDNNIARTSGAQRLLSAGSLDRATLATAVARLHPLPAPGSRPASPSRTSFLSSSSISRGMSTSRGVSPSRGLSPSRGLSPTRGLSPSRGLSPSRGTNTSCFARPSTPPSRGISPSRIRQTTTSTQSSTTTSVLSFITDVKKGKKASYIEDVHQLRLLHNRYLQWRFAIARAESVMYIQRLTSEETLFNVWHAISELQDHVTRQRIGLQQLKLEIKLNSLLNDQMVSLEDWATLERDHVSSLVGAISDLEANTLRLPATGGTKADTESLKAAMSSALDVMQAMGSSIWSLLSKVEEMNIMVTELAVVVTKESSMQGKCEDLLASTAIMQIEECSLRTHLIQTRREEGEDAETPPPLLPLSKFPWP

Regarding “X. laevis augmin N-clamp, wild type (HAUS2, HAUS6, HAUS7-EGFP-HIS8, HAUS8-HIS8) (from UniProt Q0IHJ3 1-367; Q0IHJ3 1-367; Q0IHJ3 1-367) (complex)”, the Kd is 600 nM. As for “A. thaliana augmin N-clamp, wild type (orthologs of HAUS2, HAUS6, HAUS7-EGFP-HIS8, HAUS8-HIS8) (from UniProt O48767 1-296; Q94BP7 1-741; Q0WTP1 1-329; Q9SUH5 1-644) (complex)”, the figure is 10 nM; as for “H. sapiens augmin N-clamp with HAUS6^4A-mut (K84A, R90A, K91A, K98A) (from UniProt Q9NVX0 1-235; Q7Z4H7 1-955; Q99871 1-358; Q9BT25 1-410) (complex)”, 5600 nM; as for “A. thaliana augmin N-clamp with AUG8 lacking its N-terminal extension (from UniProt O48767 1-296; Q94BP7 1-741; Q0WTP1 1-329; Q9SUH5 1-644) (complex)”, 2100 nM. As for “H. sapiens augmin N-clamp, wild type (HAUS2, HAUS6, HAUS7-EGFP-HIS8, HAUS8-HIS8) (from UniProt Q9NVX0 1-235; Q7Z4H7 1-955; Q99871 1-358; Q9BT25 1-410) (complex)”, the figure is 800 nM. As for “X. laevis augmin N-clamp with HAUS8 lacking its N-terminal extension (from UniProt Q0IHJ3 1-367; Q0IHJ3 1-367; Q0IHJ3 1-367) (complex)”, the figure is 2200 nM; as for “GST-tagged D. melanogaster augmin N-clamp (Msd1, Dgt6, Msd5-EGFP-GST, Dgt4-HIS8) (from UniProt Q9W0G7 1-138; Q9VAP2 1-654; Q9W4M8 1-188) (complex)”, 40 nM.
